What was measured:
[1] = HerDox stability under different storage temperatures; format: physicochemical; details: up to 12 days
Description: FIGS. 6 (A)-(B) illustrates conjugate stability under different storage conditions, or in serum. As illustrated in FIG. 6 (A), HerDox was incubated up to 12 days at 4° C., RT, or 37° C. Samples were filtered through ultrafiltration spin columns every other day, and retentate and filtrate absorbances measured at 480 nm to determine relative Dox retention or release from conjugates, respectively. As illustrated in FIG. 6 (B), to mimic extended exposure to cells in culture medium, HerDox immobilized on Ni-NTA beads were incubated with bovine serum in DMEM for the indicated times at 37° C. before each sample was pelleted. Absorbance of supernatants (Filtrates) and bead eluates (Retentates) were measured at 480 nm to detect Dox. Relative Dox release or retention in serum is expressed as normalized to control (corresponding sample lacking serum). N=3 per time point.
The inventors tested the stability of HerDox over 12 days under different storage temperatures: 4° C., room temperature, or 37° C. On each day, a sample underwent ultrafiltration, then filtrates and retentates were measured to determine whether any Dox was released from the complex. […] The inventors also examined HerDox stability in serum-containing media at 37° C. […] Dox retention in the conjugate was also assessed by eluting the conjugate from the beads at each time point.

MDA-MB-231 (HER2−) cells = assay: Targeted toxicity, MTT assay, separate dishes; format: cell-based; details: HerDox/Dox 0.5 uM Dox; HerPBK10 0.1 uM; day 3
Description: (§1) FIG. 7 illustrates targeted toxicity. Each cell line was exposed to HerDox (0.5 uM Dox cone), Dox alone (0.5 uM), or HerPBK10 alone for 4 h at 37° C. in complete (i.e. serum-containing) media, followed by aspiration to remove free conjugate, and addition of fresh medium while cells are grown continuously. Cell titer was determined by metabolic (i.e. MTT) assay. FIG. 7 upper panel illustrates the effect of HerDox on MDA-MB-231 (HER2−) and MDA-MB-435 (HER2+) cell survival. Relative surviving cell numbers are represented as a % of corresponding untreated cells. FIG. 7 lower panel illustrates comparison of HerDox, Dox alone, or HerPBK10 alone on HER2− and HER2+ cell survival. Relative survival (as % of untreated cells) is shown for Day 3 of treatment.
(§2) The inventors compared the effect of HerDox or Dox alone at equivalent dosages (0.5 uM with respect to Dox concentration) on HER2+ and HER2− breast cancer cells in separate dishes. By three days, HerDox reduced HER2+ cell numbers by over 75% whereas HER2− cell survival was unaffected (FIG. 7). […] These findings emphasize the importance of targeting by showing that the untargeted drug affects nontarget (i.e. HER2−) cells. Importantly, the protein carrier, HerPBK10, alone at the equivalent concentration of protein in HerDox (0.1 uM) had no effect on either cell line (FIG. 7), including a lack of proliferation induction. To test receptor targeting, the inventors used free heregulin ligand (Her or eHRG) as a competitive inhibitor. […] As a final in vitro challenge, the inventors tested whether HerDox induces toxicity specifically to HER2+ cells in a mixed culture of HER2+ and HER2− breast cancer cells. To do this, the inventors produced a HER2− cell line tagged with green fluorescent protein (GFP) for cell identification in the mixed culture (FIG. 9 (A)). […] Altogether, these findings indicate that HerDox has the capacity to preferentially target toxicity to HER2+ cells. […] Moreover, the preferential cell killing of HER2+ cells in a mixed culture of HER2+ and HER2− cells implies that after death and lysis of the target cells, the Dox released into those cells is incapable of continuing to induce toxicity to HER2− cells. To further confirm the stability of HerDox in cell culture, HerDox was recovered from culture media in separate experiments at indicated time points and electrophoresed on an agarose gel, which was then illuminated by UV to detect Dox and stained with Coomassie blue to detect HerPBK10 protein (FIG. 9 (C)). […] Co-migration of HerPBK10 bands further verified that the conjugates remained intact in the cell media.

MDA-MB-435 (HER2+) cells = assay: Targeted toxicity, MTT assay, separate dishes; format: cell-based; details: 0.5 uM Dox conc, 4 h exposure, by three days
Description: as §1, §2

[2] = test system: heregulin receptors on MDA-MB-435 (HER2+) cells; assay: Receptor specificity, competition with free heregulin ligand (eHRG); format: cell-based; details: eHRG 10× molar excess, HerDox 0.5 uM
Description: FIG. 8 illustrates receptor specificity. MDA-MB-435 (HER2+) cells were incubated with free ligand (eHRG) at 10× molar excess of HerDox for 1 h at 4° C. Media was aspirated to remove free eHRG and fresh media containing HerDox (0.5 uM) was added to cells. Cell survival was measured by MTT assay and represented as a % of relative untreated cell numbers.
The inventors compared the effect of HerDox or Dox alone at equivalent dosages (0.5 uM with respect to Dox concentration) on HER2+ and HER2− breast cancer cells in separate dishes. By three days, HerDox reduced HER2+ cell numbers by over 75% whereas HER2− cell survival was unaffected (FIG. 7). […] These findings emphasize the importance of targeting by showing that the untargeted drug affects nontarget (i.e. HER2−) cells. Importantly, the protein carrier, HerPBK10, alone at the equivalent concentration of protein in HerDox (0.1 uM) had no effect on either cell line (FIG. 7), including a lack of proliferation induction. To test receptor targeting, the inventors used free heregulin ligand (Her or eHRG) as a competitive inhibitor. […] As a final in vitro challenge, the inventors tested whether HerDox induces toxicity specifically to HER2+ cells in a mixed culture of HER2+ and HER2− breast cancer cells. […]

breast cancer cells = assay: HerDox trafficking, immunofluorescence against HerPBK10 in fixed cells; format: cell-based
Description: FIG. 15 illustrates HerDox trafficking in breast cancer cells. Cells incubated with HerDox at 37° C. were fixed at the indicated time points and processed for immunofluorescence using an antibody against HerPBK10. Images were captured using confocal microscopy under fluorescence and brightfield. Green, HerPBK10; Red, Dox. n, nucleus Bar, ˜8 microns.
To determine whether Dox remains attached to HerPBK10 during uptake, the inventors used immuno-fluorescence against HerPBK10. […] In fixed cells, nucleolar accumulation was not detectable as in the live cells (FIG. 14 (B)).

[3] = test system: bilateral flank tumors (HER2+); assay: In vivo tumor toxicity, tumor growth; set-up: species or system mice; details: daily tail vein injections, 0.004 mg/kg Dox conc, 7 consecutive days
Description: (§3) FIGS. 12 (A)-(D) illustrates comparison of HerDox and Dox on (A) tumor growth, (B) animal weight, (C) cardiac tissue, and (D) cardiac function.
To assess in vivo tumor toxicity, mice bearing 3-4 week bilateral flank tumors began receiving daily tail vein injections of Dox or HerDox (0.004 mg/kg with respect to Dox conc), HerPBK10 alone (at equivalent protein concentration to HerDox) or saline for 7 consecutive days.

hearts of mice = assay: Cardiac tissue histology and echocardiography; format: in vivo; details: treated mice
Text: as §3
At 25 days following injections, tumors and organs were harvested and processed for histochemistry. It is established that Dox can induce acute and long-term cardiotoxicity, therefore, the inventors examined the hearts of mice treated with HerDox or Dox.

B1: HerDox: non-covalent complex of HerPBK10, a small double-stranded nucleic acid and intercalated Dox (conjugate)
chain: LPPRLKEMKSQESAAGSKLVLRCETSSEYSSLRFKWFKNGNELNRKNKPQNIKIQKKPGKSELRINKASLADSGEYMCKVISKLGNDSASANITIVESNEIITGMPASTEGAYVSSESPIRISVSTEGANTSSSTSTSTTGTSHLVKCAEKEKTFCVNGGECFMVKDLSNPSRYLCKCQPGFTGARCTENVPMKVQNQEKAEELYMRRAAMYEEGPPPSYESVVSAAPVAAALGSPFDAPLDPPFVPPRYLRPTGGRNSIRYSELAPLFDTTRVYLVDNKSTDVASLNYQNDHSNFLTTVIQNNDYSPGEASTQTINLDDRSHWGGDLKTILHTNMPNVNEFMFTNKFKARVMVSRLPTKDNQVELKYEWVEFTLPEGNYSETMTIDLMNNAIVEHYLKVGRQNGVLESDIGVKFDTRNFRLGFDPVTGLVMPGVYTNEAFHPDIILLPGCGVDFTHSRLSNLLGIRKRQPFQEGFRITYDDLEGGNIPALLDVDAYQASLKDDTEQGGGGAGGSNSSGSGAEENSNAAAAAMQPVEDMNDHAIRGDTFATRAEEKRAEAEAAAEAAAPAAQPEVEKPQKKPVIKPLTEDSKKRSYNLISNDSTFTQYRSWYLAYNYGDPQTGIRSWTLLCTPDVTCGSEQVYWSLPDMMQDPVTFRSTRQISNFPVVGAELLPVHSKSFYNDQAVYSQLIRQFTSLTHVFNRFPENQILARPPAPTITTVSENVPALTDHGTLPLRNSIGGVQRVTITDARRRTCPYVYKALGIVSPRVLSSRTFKKKKKKKKKK
modifications: left off: small tags and cut ends
notes: non-covalent complex of HerPBK10, a small double-stranded nucleic acid and intercalated Dox
What does the source list for B1?
product remaining intact ([1]; 4° C.): 100%; effect of storage on Dox incorporation ([1]; room temperature and 37° C.): enhance the incorporation of the drug; effect on HER2− cell survival (MDA-MB-231 (HER2−) cells): unaffected; reduction of HER2+ cell numbers (MDA-MB-435 (HER2+) cells): over 75%; cell killing by HerDox in presence of free heregulin ligand [2]: completely inhibited; location of Dox and HerPBK10 during uptake (breast cancer cells; 30 and 60 min): increasing levels of Dox accumulate in the nucleus while the majority of HerPBK10 remains in the cytoplasm; integrity of HerDox during uptake (colocalization of HerPBK10 and Dox) (breast cancer cells; 15 min of uptake): still intact; tumor growth [3]: essentially prevented tumor growth; echocardiogram: stroke volume, cardiac output, left ventricular internal dimension and volume (hearts of mice): no effect

From patent US10391180B2, “Self-assembling complex for targeting chemical agents to cells” (CEDARS-SINAI MEDICAL CENTER, priority 2007, dated 2019)
